Experimental data reported in IntAct's records for PubMed 22070932.

B1: DAZ-associated protein 2 (Homo sapiens), Q15038 (parent)
chain: MNSKGQYPTQPTYPVQPPGNPVYPQTLHLPQAPPYTDAPPAYSELYRPSFVHPGAATVPTMSAAFPGASLYLPMAQSVAVGPLGSTIPMAYYPVGPIYPPGSTVLVEGGYDAGARFGAGATAGNIPPPPPGCPPNAAQLAVMQGANVLVTQRKGNFFMGGSDGGYTIW
partner: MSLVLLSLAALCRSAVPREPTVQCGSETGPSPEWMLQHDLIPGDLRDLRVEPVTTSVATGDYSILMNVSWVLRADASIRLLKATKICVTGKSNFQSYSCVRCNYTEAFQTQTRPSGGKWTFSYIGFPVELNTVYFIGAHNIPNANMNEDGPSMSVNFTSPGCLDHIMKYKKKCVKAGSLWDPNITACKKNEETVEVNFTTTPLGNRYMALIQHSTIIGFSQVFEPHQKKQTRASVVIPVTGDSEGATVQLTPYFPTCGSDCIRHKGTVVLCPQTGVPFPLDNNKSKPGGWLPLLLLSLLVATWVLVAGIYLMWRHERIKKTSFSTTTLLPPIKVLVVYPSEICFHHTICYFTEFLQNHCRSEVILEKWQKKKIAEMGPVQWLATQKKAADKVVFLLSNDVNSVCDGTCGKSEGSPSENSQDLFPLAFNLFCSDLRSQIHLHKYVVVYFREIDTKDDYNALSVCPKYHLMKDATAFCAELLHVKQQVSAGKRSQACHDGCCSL
B2: DAZ-associated protein 2 (Homo sapiens), Q15038 (parent)
chain: B1 chain

Variants of: B1
Settings: with IL17RB
Y42A was tested, and the “effect of a mutation on the interaction” value was “decreasing interaction strength”. With Y42A;Y165A the “effect of a mutation on the interaction” value was “disrupting interaction strength”. In the case of Y165A, the “effect of a mutation on the interaction” value is reported as “decreasing interaction strength”.

Variants of: B2
Settings: with smuf2_human SMURF2, Q9HAU4
Sequence of smuf2_human SMURF2, Q9HAU4 (Q9HAU4 whole entry): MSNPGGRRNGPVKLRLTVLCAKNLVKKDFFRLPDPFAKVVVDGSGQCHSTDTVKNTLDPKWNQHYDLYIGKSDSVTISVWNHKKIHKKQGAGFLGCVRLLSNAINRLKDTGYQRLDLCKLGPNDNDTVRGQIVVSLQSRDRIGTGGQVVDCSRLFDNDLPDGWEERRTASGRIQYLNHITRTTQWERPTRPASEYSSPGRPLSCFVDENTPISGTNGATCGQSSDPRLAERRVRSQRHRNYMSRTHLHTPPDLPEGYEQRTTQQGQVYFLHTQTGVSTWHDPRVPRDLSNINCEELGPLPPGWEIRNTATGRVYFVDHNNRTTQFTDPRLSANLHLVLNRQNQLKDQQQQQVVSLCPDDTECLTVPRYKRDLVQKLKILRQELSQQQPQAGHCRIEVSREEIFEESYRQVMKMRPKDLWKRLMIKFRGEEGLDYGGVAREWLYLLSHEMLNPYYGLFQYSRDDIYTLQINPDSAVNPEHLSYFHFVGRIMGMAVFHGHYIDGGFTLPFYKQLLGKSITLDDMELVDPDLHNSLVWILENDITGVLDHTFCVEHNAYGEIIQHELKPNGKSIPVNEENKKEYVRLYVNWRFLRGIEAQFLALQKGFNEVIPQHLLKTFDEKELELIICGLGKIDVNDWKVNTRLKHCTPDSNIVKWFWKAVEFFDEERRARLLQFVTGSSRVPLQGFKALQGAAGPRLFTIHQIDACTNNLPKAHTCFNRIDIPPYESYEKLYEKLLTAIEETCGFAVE
With Y42A the “effect of a mutation on the interaction” value was “disrupting interaction strength”.
